{"source": "paper PMC8207215", "molecules": {"B1": {"name": "peptide inhibitor VYPWT (peptide)", "peptide": "VYPWT"}}, "key": {"[1]": {"biological_target": "recombinant human insulin-regulated aminopeptidase (IRAP), secreted soluble form (human) (UniProt Q9UIQ6)", "test": "native gel or EMSA"}, "[2]": {"biological_target": "recombinant human insulin-regulated aminopeptidase (IRAP), secreted soluble form (human) (UniProt Q9UIQ6)", "test": "SEC"}, "[3]": {"biological_target": "recombinant human insulin-regulated aminopeptidase (IRAP), secreted soluble form (human) (UniProt Q9UIQ6)", "test": "enzyme inhibition assay"}}, "data": [{"molecule": "recombinant human insulin-regulated aminopeptidase (IRAP), secreted soluble form (from UniProt Q9UIQ6 155-1025) (enzyme)", "values": [{"measurement": "stoichiometry N", "setting": "[1]", "value": 2}, {"measurement": "stoichiometry N", "setting": "[2]", "value": 2}]}, {"molecule": "B1", "values": [{"measurement": "Ki", "setting": "[3]", "value": 98, "unit": "nM"}]}]}
